Test results: paper PMC10212915, “An ancient metabolite damage-repair system sustains photosynthesis in plants” (Nature Communications, 2023)

Tests used:
Experiment in all cases: malachite green phosphate release assay
Format in all cases: biochemical, Arabidopsis thaliana
Details in all cases: MOPS-KOH pH 7.5, 100 mM KCl, 10 mM MgCl2, 25 °C
[1] = substrate: O=C(COP(=O)(O)O)[C@@H](O)[C@H](O)COP(=O)(O)O
From the text: (§1) malachite green phosphate release assay on MBP-AtCbbYA

[2] = substrate: O=C(COP(=O)(O)O)[C@H](O)[C@H](O)COP(=O)(O)O
From the text: as §1

[3] = substrate: O=C(COP(=O)(O)O)[C@@H](O)[C@H](O)COP(=O)(O)O; remark: listed apart in the source
From the text: (§2) malachite green phosphate release assay on MBP-AtCbbYB

[4] = substrate: O=C(COP(=O)(O)O)[C@H](O)[C@H](O)COP(=O)(O)O; remark: listed apart in the source
From the text: as §2

B1: MBP-AtCbbYA (Arabidopsis thaliana) (protein)
chain: CSASSSLTTLPSALLFDCDGVLVDTEKDGHRISFNDTFKERDLNVTWDVDLYGELLKIGGGKERMTAYFNKVGWPEKAPKDEAERKEFIAGLHKQKTELFMVLIEKKLLPLRPGVAKLVDQALTNGVKVAVCSTSNEKAVSAIVSCLLGPERAEKIKIFAGDVVPKKKPDPAIYNLAAETLGVDPSKCVVVEDSAIGLAAAKAAGMTCIVTKSGYTADEDFENADAVFDCIGDPPEERFDLAFCGSLLRKQFVS
Km [1]: 40 ± 1 µM
kcat [1]: 2.13 ± 0.04 s⁻¹
kcat/Km [1]: 53000 ± 2000 M⁻¹ s⁻¹
Km [2]: 4310 ± 110 µM
kcat [2]: 0.043 ± 0.009 s⁻¹
kcat/Km [2]: 10 ± 2 M⁻¹ s⁻¹

B2: MBP-AtCbbYB (Arabidopsis thaliana) (protein)
chain: SKSRVSSPVSALPLRSLEALIFDCDGVILESENLHRQAYNDAFSHFDVRCPPSSSESLDWSLEFYDKFQNLVGGGKPKMRWYFKENGWPTSTIFDSPPQNDDDRAKLIDTLQDWKTERYKEIIKSGSVEPRPGVIRLMDEAKAAGKKLAVCSAATKSSVILCLENLIDIERFQGLDCFLAGDDVKEKKPDPSIYITAAEKLGVSVKDCLVVEDSVIGLQAATKAGMSCVITYTSSTSDQNFNDAIAVYPDLSNVKLKDLETLLQTIVTAA
Km [3]: 182 ± 30 µM
kcat [3]: 0.54 ± 0.05 s⁻¹
kcat/Km [3]: 3000 M⁻¹ s⁻¹
Km [4]: 4840 ± 360 µM
kcat [4]: 0.015 ± 0.002 s⁻¹
kcat/Km [4]: 3.2 ± 0.4 M⁻¹ s⁻¹
